From US5661005, “β3 integrin subunit specific polypeptides, cDNAS which encode these polypeptides and methods of producing these polypeptides” (Trustees of the University of Pennsylvania, dated 1997) come the findings set out here.

Experiment [1] addresses T1, integrin β1 cytoplasmic domain (Homo sapiens (Human), UniProt P05556).
T1 chain: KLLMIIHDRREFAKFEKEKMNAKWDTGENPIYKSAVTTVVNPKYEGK
The experiment in a line: yeast two-hybrid, quantitative β-galactosidase assay.

Experiment [2] concerns the target T2, integrin β2 cytoplasmic domain (Homo sapiens (Human), UniProt P05107).
T2 chain: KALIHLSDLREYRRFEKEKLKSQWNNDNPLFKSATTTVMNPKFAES
The experiment is described as above.

For experiment [3], the target named is β3 cytoplasmic tail with mutation of a serine to a proline at amino acid residue 752 (Saccharomyces cerevisiae (strain ATCC 204508 / S288c) (Baker's yeast); Homo sapiens (Human)) (UniProt P04386). The experiment in a line: yeast two-hybrid, quantitative β-galactosidase assay of yeast lysates.

B1: polypeptide encoded by clone 28 (SEQ ID NO: 2), β3 integrin subunit specific polypeptide (other)
chain: GHEGPKITRKKSVITYSPTTGTCQMSLFASPTSSEEQKHRNGLSNEKRKKLNHPSLTESKESTTKDNDEFMMLLSKVEKLSEEIMEIMQNLSSIQ
B1: the binding result in experiment [1] and in experiment [2] was “no binding” in each case. In experiment [3], this molecule displayed a reduction in the interaction (against the unmutated β3 cytoplasmic tail) of 70%.

B2: β3 integrin subunit specific polypeptide comprising about 111 amino acids (SEQ ID NO: 4) (other)
chain: MPVKRSLKLDGLLEENSFDPSKITRKKSVITYSPTTGTCQMSLFASPTSSEEQKHRNGLSNEKRKKLNHPSLTESKESTTKDNDEFMMLLSKVEKLSEEIMEIMQNLSSIQ
With B2, the binding result in experiment [1] and in experiment [2] was “no binding” in each case.
